According to patent US6376240, “RFLAT-1: a transcription factor that activates RANTES gene expression” (Board of Trustees of the Leland Stanford Junior Unversity):

The binders below were run against T1, RFLAT-1 C-terminal portion (aa 59-288) (homo sapien, UniProt Q9Y2Y9 SEQ:59-288) (assay: EMSA). Details: tags: His6 (pET-28a); label: 32P.
Description: (§1) The wells were incubated in blocking buffer (5% goat serum, 5% horse serum, 0.1% Triton X-100 in PBS), washed in PBS supplemented with 0.1% Triton X-100, and incubated with antigen purified rabbit polyclonal anti-RFLAT-1 (1:500 [v/v]) or rabbit IgG (1:500 [v/v]) (Santa Cruz Biotechnology, Santa Cruz, Calif.). The wells were washed, incubated with goat anti-rabbit FITC (1:2000 [v/v]) (Caltag, Burlingame, Calif.), and anti-FITC Alexa™ 488 (1:2000 [v/v]) (Molecular Probes, Eugene, Oreg.). Finally, the slide was washed with PBS, covered with mounting media (1:3 [v/v], Vectashield with propidium iodide) (Vector, Burlingame, Calif.), cover slipped and sealed. EMSA and supershift assays were performed essentially as described by Ortiz et al., 1996, supra. Oligonucleotides were synthesized by Life Technologies, Inc. (Gaithersburg, Md.) and purified by a polyacrylamide-urea gel. Oligonucleotides were end-labeled using [γ-^32P] ATP and T4 polynucleotide kinase. The following oligonucleotides were used:
(§2) A carboxyl terminal portion of RFLAT-1, including the zinc finger DNA binding domain (nucleotides 550–1430), was isolated through expression cloning using an oligonucleotide probe containing three tandem A sites of the RANTES promoter.

T1 sequence (Q9Y2Y9 other isoform, or with tags, fused parts or gaps): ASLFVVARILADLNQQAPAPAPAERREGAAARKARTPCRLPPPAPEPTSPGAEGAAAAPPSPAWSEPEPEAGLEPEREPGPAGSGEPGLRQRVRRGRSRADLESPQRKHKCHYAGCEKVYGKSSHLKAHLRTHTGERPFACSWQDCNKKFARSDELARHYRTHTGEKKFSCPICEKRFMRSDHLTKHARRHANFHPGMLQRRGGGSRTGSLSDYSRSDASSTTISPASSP

| Binder | binding result |
| --- | --- |
| E probe (dsDNA) DNA 1: AATTCTTTGTGCAATTTCACTTATGATACCG DNA 2: CGGTATCATAAGTGAAATTGCACAAAGAATT | no binding |
| kB probe (dsDNA) DNA 1: AATTCGTCAGAGGGGACTTTCCGAGAG DNA 2: CTCTCGGAAAGTCCCCTCTGACGAATT | no binding |
| A probe (dsDNA) DNA 1: AATTCGTTGCTATTTTGGAAACTCCCCTTG DNA 2: CAAGGGGAGTTTCCAAAATAGCAACGAATT | binds |
| C probe (dsDNA) DNA 1: AATTCTCTAGATGAGAGAGCAGTGAGGGAGAGACG DNA 2: CGTCTCTCCCTCACTGCTCTCTCATCTAGAGAATT | no binding |
| B probe (dsDNA) DNA 1: AATTCGCTAGGGGATGCCCCTCAACTGCG DNA 2: CGCAGTTGAGGGGCATCCCCTAGCGAATT | no binding |

These binders were tested against T1, RFLAT-1 C-terminal portion (aa 59-288) (assay: EMSA; two retarded bands, possible oligomerization). Details: tags: His6 (pET-28a); label: 32P.
Description: as §1, §2

| Binder | binding result |
| --- | --- |
| A/B probe (dsDNA) DNA 1: AATTCGCTATTTTGGAAACTCCCCTTAGGGGATGCCCCTCAACTGCG DNA 2: CGCAGTTGAGGGGCATCCCCTAAGGGGAGTTTCCAAAATAGCGAATT | binds |
